The data set concerns the molecule itself. Put plainly: cryo-EM structure; single-particle cryoEM of purified full-length T. terrestris Sec7 with 2 mM fluorinated fos-choline 8; C2 symmetry for the dimer consensus map (5.3 Å), focused monomer map 3.7 Å, composite dimer model.

As a reminder, the stoichiometry N is a count of units in the complex or per binding partner.

B1: full-length Sec7 from Thielavia terrestris (natural protein)
chain: MEQKLISEEDLNSAVDHHHHHHRIPGLINSSLKFVVSSLDIIAAQAGRNKQLAELAEKALAAIKENDQQLPDPEVVFAPLQLATKSGTIPLTTTALDCIGKLISYSYFSAPSSSATQDGTEQTPLIERAIDTICDCFQGETTLVEIQLQIVKSLLAAVLNDKIIVHGAGLLKAVRQVYNIFLLSRSTANQQVAQGTLTQMVGTVFERVKTRLHMKEARANLGRLKASRSSLAVDRSDDQDSQAGKVDGEDATVETVSDATPSESVDKAGGGKLTLKDLEHRKSFDDSHMGDGPTMVSQVKPMKKASRSVSEQSLQESPQDETPESLDAEDEAYIRDAYLVFRSFCNLSTKILPPDQLYDLRGQPMRSKLISLHLIHTLLNNHITVFTSPLCTIRNTKNNEPTNFLQAIKYYLCLSITRNGASSVDRVFDICCEIFWLMLKYMRSSFKNEIEVFLNEIYLALLARRNAPLSQKLTFVGILKRLCEDPRALVELYLNYDCNQNVDNIFQTIVEDLSRFATASVPITPTQEQQYEESRSKSATAGEWQIKSVLPPPLSVALIATNHEADTELPKEYVMKRTALDSLVETLRSLVHWSQPGRPELNGASGDVQRRTSSDDLGDSIDPSMSETASRMEVPIAPATPVIDDDPDQLEKEKARKTAMTNAIKVFNFKPKHGIKLLIKEGFIPSDKPEDIARFLLREERLDKAQIGEYLGEGDQKNVDIMHAFVDMMDFSKKRFVDALREFLQAFRLPGEAQKIDRFMLKFAHRYVTGNPNAFANADTPYVLAYSVIMLNTDLHSSKVVKRMSKAEFIKNNRGINDNADLPDEYLIGIYDDIASNEIVLKSEREAAAAAGTLPAQSTGLAGLGQAFSNVGRDLQREAYVQQSEEISLRSEQLFRDLYRSQRKSATKGGVKFISATSFKHVGPMFDATWMSFFSTLSSLVQKTHNLDVNKLCLEGMKLATKIACLFDLSTPREAFISMLKNTANLNNPREMQAKNVEALKVLLDLAQTEGNYLKESWKDVLLCISQLDRLQLISGGVDESAVPDVSRARFVPPPRTETGESRKSTSSARRTRPRAHTGPQGVSLEIALESRSDEVIKSVDRIFTNTANLSRDAIIHFARALTEVSWDEIKVSGSNDSPRTYSLQKIVEISYYNMTRVRFEWSHIWDVLGEHFNRVGCHANTAIVFFALDSLRQLSMRFMEIEELAGFKFQKDFLKPFEHVMSNSSNVTVKDMVLRCLIQMIQARGENIRSGWRTMFGVFTVAAREPYESIVNLAYENVTQVYKTRFGVVISQGAFTDLIVCLTEFSKNMRFQKKSLQAMETLKSVIPTMLKTPECPLSQHKPTATTASGSESHSKKAAVQQTRTSVEEGFWFPVLFAFHDVLMTGEDLEVRSNALNYFFETLLRYGGDFPPEFWDILWRQQLYPIFMVLRSRPEMTNALNHEELSVWLSTTMIQALRNMITLFTHYFDALEYMLDRFLELLALCICQENDTIARIGSNCLQQLILQNVTKFTAEHWAKIVGAFCELFERTTAYQLFSATTINSTASLSPPPSGLELGGPLSPTSATAPVDGKSLKINGVETNGQTPGAEPANGDADGNGTAAAAADASAPAATPQPQQGPAQQLEEFKPNNPLQQQPVVVTAARRRFFNRIISRCVLQLLMIETVNELFSNDAVYAQIPSAELLRLMALLKKSFLFAKRFNADKDLRMRLWREGFMKQPPNLLKQESGSAATYVAILFRMFGDTAPDRRGSRADVEAALVPLCRDIIRGYTALDDESQHRNIVAWRPVVVDVLEGYAAFPRDAFAAHIRSFYPLVVELLGKDLGQDLRAALLLVLRRVGEVGLGIEGMGSGGAAAAAAAGAAAASSGQGNGNGAAAAAADSERRSSVLSVPSGPRHTPSMDSLNDDPSRQVMGKAEQKLISEEDLNSAVDHHHHHH
Take B1: the “stoichiometry N” value is 2.

The values are drawn from article doi:10.1101/2023.11.22.568272, “Sec7 regulatory domains scaffold autoinhibited and active conformations” (bioRxiv, 2023).
